{"source": "paper PMC4715444", "about": "“A simple and rapid method for measuring α-D-phosphohexomutases activity by using anion-exchange chromatography coupled with an electrochemical detector” (PeerJ, 2016)", "substrate": "O=P(O)(O)O[C@H]1O[C@H](CO)[C@@H](O)[C@H](O)[C@H]1O", "assay": "HPAEC-PAD, direct detection of hexose phosphates", "format": "biochemical, Arabidopsis thaliana", "settings": "20 mM PBS pH 7.0, 10 mM MgSO4, 20 µM glucose-1,6-bisphosphate, 30 °C", "source_text": "HPAEC-PAD, direct detection of hexose phosphates on AtAGM"}
{"protein": "AtAGM (Arabidopsis thaliana) (protein) MDEIQIASILKSSELFPIPQGVKLSYGTAGFRGDAKLLESTVYRVGILSALRSLKLGSATVGLMITASHNKVSDNGIKVSDPSGFMLSQEWEPFADQIANASSPEELVSLIRKFMEKEEIAIGENNKGAEVWLGRDTRPSGESLLRAGEIGVGSILGSVAIDIGILTTPQLHWMVRAKNKGLKATENDYFENLSTSFRCLIDLIPSSGNDKLEISKLLVDGANGVGGQKIEKLRGSLSNLDVEIRNTGRDGGVLNEGVGADFVQKEKVLPVGFGFKDVGMRCASLDGDADRLVYFYIPSDSSEKVELLDGDKILSLFALFIKEQLNALEDDEERKQSRLGVVQTAYANGASTDYLKHLGLDVVFAKTGVKHLHEKAAEFDIGIYFEANGHGTILFSESFLSWLVSKQKDLTAKGQGGSEEHKAVSRLMAVSNLINQAVGDALSGVLLVEVILQHLGWSIEKWNELYKDLPSRQIKVEVPDRTAVVTTSEETEALRPMGIQDAINSEIKKYSRGRAFIRPSGTEDVVRVYAEASTQEDADSLANSVAQLVKSFLGSS", "values": [{"measurement": "Km", "value": "679.18 ± 156.40", "unit": "µM"}, {"measurement": "Vmax", "value": 0.137, "unit": "µmol/min"}, {"measurement": "kcat", "value": 40.4, "unit": "s⁻¹"}]}
